In patent publication US10314894B2, “Treatment of cardio-renal disease using PCSK6” (THE CLEVELAND CLINIC FOUNDATION, priority 2014, dated 2019):

What was measured:
corin variant Q568P = molecular target: T1, corin variant Q568P (Homo sapiens, UniProt Q9Y5Q5, Q568P); assay: PCSK6-mediated corin activation in HEK293 cells, corin variant Q568P; format: cell-based; conditions: Western
T1 construct: expressed in transfected cells; host or cells: HEK293
T1 sequence (Q9Y5Q5 1-1042 Q568P): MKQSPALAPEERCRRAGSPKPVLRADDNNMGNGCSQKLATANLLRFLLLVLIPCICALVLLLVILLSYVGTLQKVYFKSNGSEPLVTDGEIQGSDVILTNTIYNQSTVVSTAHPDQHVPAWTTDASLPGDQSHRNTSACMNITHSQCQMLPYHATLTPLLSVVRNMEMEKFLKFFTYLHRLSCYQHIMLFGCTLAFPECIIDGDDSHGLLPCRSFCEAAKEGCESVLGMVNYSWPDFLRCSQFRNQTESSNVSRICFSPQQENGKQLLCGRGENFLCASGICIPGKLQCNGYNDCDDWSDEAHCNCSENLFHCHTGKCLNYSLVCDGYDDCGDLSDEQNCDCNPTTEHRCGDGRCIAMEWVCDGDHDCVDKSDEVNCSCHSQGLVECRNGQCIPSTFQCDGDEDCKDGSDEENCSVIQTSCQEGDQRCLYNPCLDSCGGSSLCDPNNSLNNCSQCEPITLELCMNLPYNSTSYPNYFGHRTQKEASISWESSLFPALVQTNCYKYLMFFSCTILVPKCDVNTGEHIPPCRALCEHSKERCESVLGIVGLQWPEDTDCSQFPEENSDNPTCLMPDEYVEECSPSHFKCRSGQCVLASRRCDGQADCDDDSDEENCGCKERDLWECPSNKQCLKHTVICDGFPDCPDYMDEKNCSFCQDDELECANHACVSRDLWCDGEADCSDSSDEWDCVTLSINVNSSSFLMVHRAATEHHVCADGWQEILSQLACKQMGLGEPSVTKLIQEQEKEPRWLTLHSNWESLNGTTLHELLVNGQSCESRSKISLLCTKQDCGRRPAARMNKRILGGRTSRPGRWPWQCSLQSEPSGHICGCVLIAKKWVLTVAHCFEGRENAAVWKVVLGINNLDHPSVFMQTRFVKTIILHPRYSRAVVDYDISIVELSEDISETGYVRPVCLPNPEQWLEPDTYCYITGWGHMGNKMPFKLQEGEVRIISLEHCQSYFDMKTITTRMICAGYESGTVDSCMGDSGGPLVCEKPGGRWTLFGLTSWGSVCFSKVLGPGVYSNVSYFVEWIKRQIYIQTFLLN
Excerpt: (§1) Plasmids expressing human corin WT and mutants R801A, S985A, T555I, Q568P, T555I/Q568P, K317E, S472G and R539C were reported previously. Dong, N. et al., J Biol Chem 289, 17909-17916 (2014); Knappe et al., J Biol Chem 278, 52363-52370 (2003); Wu et al., J Biol Chem 277, 16900-16905. (2002). Plasmids expressing human PCSK1-9 were made by cloning respective cDNAs into pcNDA3.1 vector. Recombinant corin and PCSK proteins encoded by these plasmids contained a C-terminal V5 or flag tag for protein detection in Western blotting.
(§2) HEK293 and HL-1 cells were transfected with corin or PCSK6 expression plasmids. After 48-72 h, cells were lysed in a buffer containing 25 mM Tris-HCl, pH 7.4, 150 mM NaCl, 1 mM EDTA, 1% (v/v) NP-40, and 1% (v/v) protease inhibitor cocktail. Recombinant corin and PCSK6 proteins were immunoprecipitated with an anti-V5 or anti-flag antibody. Western blotting was carried out to analyze corin expression and activation or PCSK6 expression with or without reducing agents. Percentage of corin activation (corin-p vs. corin fragments) was quantified by densitometric analysis of Western blots.

corin mutant K317E = molecular target: T2, corin mutant K317E (Homo sapiens, UniProt Q9Y5Q5, K317E); assay: PCSK6-mediated corin activation in HEK293 cells, corin mutant K317E; format: cell-based; conditions: Western, densitometry
T2 construct: expressed in transfected cells; host or cells: HEK293
T2 sequence (Q9Y5Q5 1-1042 K317E): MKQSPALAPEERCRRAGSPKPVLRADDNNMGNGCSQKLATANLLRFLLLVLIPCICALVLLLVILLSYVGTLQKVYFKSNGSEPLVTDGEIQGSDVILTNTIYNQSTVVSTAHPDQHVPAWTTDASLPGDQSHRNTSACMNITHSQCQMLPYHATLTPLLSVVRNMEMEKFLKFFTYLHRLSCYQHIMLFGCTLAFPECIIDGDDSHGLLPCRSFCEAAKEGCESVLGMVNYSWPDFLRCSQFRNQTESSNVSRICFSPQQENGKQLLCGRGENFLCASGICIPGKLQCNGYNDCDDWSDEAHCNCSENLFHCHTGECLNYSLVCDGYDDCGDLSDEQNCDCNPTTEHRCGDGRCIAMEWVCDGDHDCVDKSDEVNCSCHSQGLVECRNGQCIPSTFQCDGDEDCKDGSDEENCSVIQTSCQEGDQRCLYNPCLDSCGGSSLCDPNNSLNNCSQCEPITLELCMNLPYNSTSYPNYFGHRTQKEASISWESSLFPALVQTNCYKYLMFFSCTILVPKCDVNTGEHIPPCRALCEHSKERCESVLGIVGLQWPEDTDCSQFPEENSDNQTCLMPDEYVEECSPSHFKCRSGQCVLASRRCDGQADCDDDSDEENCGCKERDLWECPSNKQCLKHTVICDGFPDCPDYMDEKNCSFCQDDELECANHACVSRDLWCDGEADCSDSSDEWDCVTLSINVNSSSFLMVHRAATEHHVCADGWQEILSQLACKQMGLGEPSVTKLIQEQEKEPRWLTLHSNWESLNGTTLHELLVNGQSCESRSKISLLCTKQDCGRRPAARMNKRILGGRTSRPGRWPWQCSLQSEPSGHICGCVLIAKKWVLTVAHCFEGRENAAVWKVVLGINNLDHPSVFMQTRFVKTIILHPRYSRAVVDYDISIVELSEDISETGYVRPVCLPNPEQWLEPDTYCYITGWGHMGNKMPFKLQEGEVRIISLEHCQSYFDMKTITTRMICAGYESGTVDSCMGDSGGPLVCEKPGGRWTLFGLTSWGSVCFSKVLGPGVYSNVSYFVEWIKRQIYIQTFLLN
Excerpt: as §1, §2

B1: proprotein convertase subtilisin/kexin-6 (protein, listed as Homo sapiens)
chain: MPPRAPPAPGPRPPPRAAAATDTAAGAGGAGGAGGAGGPGFRPLAPRPWRWLLLLALPAACSAPPPRPVYTNHWAVQVLGGPAEADRVAAAHGYLNLGQIGNLEDYYHFYHSKTFKRSTLSSRGPHTFLRMDPQVKWLQQQEVKRRVKRQVRSDPQALYFNDPIWSNMWYLHCGDKNSRCRSEMNVQAAWKRGYTGKNVVVTILDDGIERNHPDLAPNYDSYASYDVNGNDYDPSPRYDASNENKHGTRCAGEVAASANNSYCIVGIAYNAKIGGIRMLDGDVTDVVEAKSLGIRPNYIDIYSASWGPDDDGKTVDGPGRLAKQAFEYGIKKGRQGLGSIFVWASGNGGREGDYCSCDGYTNSIYTISVSSATENGYKPWYLEECASTLATTYSSGAFYERKIVTTDLRQRCTDGHTGTSVSAPMVAGIIALALEANSQLTWRDVQHLLVKTSRPAHLKASDWKVNGAGHKVSHFYGFGLVDAEALVVEAKKWTAVPSQHMCVAASDKRPRSIPLVQVLRTTALTSACAEHSDQRVVYLEHVVVRTSISHPRRGDLQIYLVSPSGTKSQLLAKRLLDLSNEGFTNWEFMTVHCWGEKAEGQWTLEIQDLPSQVRNPEKQGKLKEWSLILYGTAEHPYHTFSAHQSRSRMLELSAPELEPPKAALSPSQVEVPEDEEDYTAQSTPGSANILQTSVCHPECGDKGCDGPNADQCLNCVHFSLGSVKTSRKCVSVCPLGYFGDTAARRCRRCHKGCETCSSRAATQCLSCRRGFYHHQEMNTCVTLCPAGFYADESQKNCLKCHPSCKKCVDEPEKCTVCKEGFSLARGSCIPDCEPGTYFDSELIRCGECHHTCGTCVGPGREECIHCAKNFHFHDWKCVPACGEGFYPEEMPGLPHKVCRRCDENCLSCAGSSRNCSRCKTGFTQLGTSCITNHTCSNADETFCEMVKSNRLCERKLFIQFCCRTCLLAG
modifications: C-terminal FLAG tag
PCSK6-mediated activation cleavage (corin variant Q568P): detected
reduction in PCSK6-mediated corin activation compared with WT corin (corin mutant K317E): 39%
